Data taken from patent US11193929.
Where no end group is shown, it is not given here. [ ]: non-standard residue; d: D form. AEEA = NCCOCCOCC(=O)O

Assays:
[1] = molecular target: 3D5F7 monoclonal antibody, Fab' fragment coupled to alkaline phosphatase; assay: VIDAS one-step sandwich immunoassay; capture 19C7+B90 on tip, detection 3D5F7+7B9 Fab'-alkaline phosphatase; (10 ng/mL peptide)
[2] = molecular target: 3D5F7 monoclonal antibody, Fab' fragment coupled to alkaline phosphatase; assay: VIDAS one-step sandwich immunoassay; capture 19C7+B90 on tip, detection 3D5F7+7B9 Fab'-alkaline phosphatase; compound (5 ng/mL peptide)
[3] = molecular target: 3D5F7 monoclonal antibody, Fab' fragment coupled to alkaline phosphatase; assay: VIDAS one-step sandwich immunoassay; capture 19C7+B90 on tip, detection 3D5F7+7B9 Fab'-alkaline phosphatase; compound at (1 ng/mL peptide)
[4] = molecular target: 3D5F7 monoclonal antibody, Fab' fragment coupled to alkaline phosphatase; assay: VIDAS one-step sandwich immunoassay; capture 19C7+B90 on tip, detection 3D5F7+7B9 Fab'-alkaline phosphatase; compound (50 ng/mL peptide)
[5] = molecular target: 3D5F7 monoclonal antibody, Fab' fragment coupled to alkaline phosphatase; assay: VIDAS one-step sandwich immunoassay; capture 19C7+B90 on tip, detection 3D5F7+7B9 Fab'-alkaline phosphatase; peptide at 2 ng/mL
[6] = molecular target: 3D5F7 monoclonal antibody, Fab' fragment coupled to alkaline phosphatase; assay: VIDAS one-step sandwich immunoassay; capture 19C7+B90 on tip, detection 3D5F7+7B9 Fab'-alkaline phosphatase; compound at (20 ng/mL peptide)
[7] = molecular target: 3D5F7 monoclonal antibody, Fab' fragment coupled to alkaline phosphatase; assay: VIDAS one-step sandwich immunoassay; capture 19C7+B90 on tip, detection 3D5F7+7B9 Fab'-alkaline phosphatase; peptide (50 ng/mL peptide)
[8] = molecular target: 3D5F7 monoclonal antibody, Fab' fragment coupled to alkaline phosphatase; assay: VIDAS one-step sandwich immunoassay; capture 19C7+B90 on tip, detection 3D5F7+7B9 Fab'-alkaline phosphatase; peptide (100 ng/mL peptide)
[9] = molecular target: 3D5F7 monoclonal antibody, Fab' fragment coupled to alkaline phosphatase; assay: VIDAS one-step sandwich immunoassay; capture 19C7+B90 on tip, detection 3D5F7+7B9 Fab'-alkaline phosphatase; peptide at (4000 ng/mL peptide)
[10] = molecular target: 3D5F7 monoclonal antibody, Fab' fragment coupled to alkaline phosphatase; assay: VIDAS one-step sandwich immunoassay; capture 19C7+B90 on tip, detection 3D5F7+7B9 Fab'-alkaline phosphatase; peptide (20 ng/mL peptide)
[11] = molecular target: 3D5F7 monoclonal antibody, Fab' fragment coupled to alkaline phosphatase; assay: VIDAS one-step sandwich immunoassay; capture 19C7+B90 on tip, detection 3D5F7+7B9 Fab'-alkaline phosphatase; peptide at (1000 ng/mL peptide)
[12] = molecular target: 3D5F7 monoclonal antibody, Fab' fragment coupled to alkaline phosphatase; assay: VIDAS one-step sandwich immunoassay; capture 19C7+B90 on tip, detection 3D5F7+7B9 Fab'-alkaline phosphatase; peptide at (2000 ng/mL peptide)
[13] = molecular target: 3D5F7 monoclonal antibody, Fab' fragment coupled to alkaline phosphatase; assay: VIDAS one-step sandwich immunoassay; capture 19C7+B90 on tip, detection 3D5F7+7B9 Fab'-alkaline phosphatase; peptide at (500 ng/mL peptide)
[14] = molecular target: 3D5F7 monoclonal antibody, Fab' fragment coupled to alkaline phosphatase; assay: VIDAS one-step sandwich immunoassay; capture 19C7+B90 on tip, detection 3D5F7+7B9 Fab'-alkaline phosphatase; peptide (200 ng/mL peptide)

Binder | signal in RFV [1] [RFV] | signal in RFV [2] [RFV] | signal in RFV [3] [RFV] | signal in RFV [4] [RFV] | signal in RFV [5] [RFV] | signal in RFV [6] [RFV] | signal in RFV [7] [RFV] | signal in RFV [8] [RFV] | signal in RFV [9] [RFV] | signal in RFV [10] [RFV] | signal in RFV [11] [RFV] | signal in RFV [12] [RFV] | signal in RFV [13] [RFV] | signal in RFV [14] [RFV]
ATEPHAKKK[AEEA][AEEA]CAGLGFAELQDL-NH2 (peptide, part only; not given: polyclonal rabbit IgG carrier, part only, not fully specified (some residues); numbers in words are those of the source; also: Cys thioether-coupled to IgG carrier, about 10 peptides per IgG) [Compound 3 (Peptide 1 - IgG)] | 1690 | 882 | 175 | 6210 | 360 | 3280 |  |  |  |  |  |  |  | 
ATEPHAKKKCAGLGFAELQDL ((Ado)2 (dimer of 8-amino-3,6-dioxaoctanoic acid) between ATEPHAKKK and C and between C and AGLGFAELQDL; C-terminal amide) [Noncoupled peptide 1] |  |  |  |  |  |  | 21 | 69 | 7540 | 2 | 3800 | 6140 | 1820 | 356
